From patent US20200240982A1 (GOVERNMENT OF THE UNITED STATES OF AMERICA AS REPRESENTED …, published 2020)

T1: Staphylococcal enterotoxin B (UniProt P01552 28-266)
T1 sequence: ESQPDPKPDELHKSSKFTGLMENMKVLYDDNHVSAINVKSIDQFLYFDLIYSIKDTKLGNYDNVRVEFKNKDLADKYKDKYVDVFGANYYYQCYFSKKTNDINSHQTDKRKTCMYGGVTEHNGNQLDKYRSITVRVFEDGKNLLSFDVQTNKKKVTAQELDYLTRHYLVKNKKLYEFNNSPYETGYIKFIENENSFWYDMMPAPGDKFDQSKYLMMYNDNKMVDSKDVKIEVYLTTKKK

B1: DD7-DD7-SpyTag (VHH)
chain: EVQLVQSGGGSVQAGGSLRLSCAHSSITVPDYTIGWFRRAPGKGGEEVSLISMHGGRSWYAGSVKGRFAISRDSVKNTVYLQMNNLKPEDTDIYYCGGTTFGLAAAPNEYDSWGQGSQVTVSSGGGGSGGGGSGSEVQLVQSGGGSVQAGGSLRLSCAHSSITVPDYTIGWFRRAPGKGGEEVSLISMHGGRSWYAGSVKGRFAISRDSVKNTVYLQMNNLKPEDTDIYYCGGTTFGLAAAPNEYDSWGQGSQVTVSSGGGGSGGGGSGSAHIVMVDAYKPTKAAALEHHHHHH
B2: AcVe anti-SEB sdAb monomer (VHH)
VHH: DVQLVESGGGLVQPGGSLRLTCAASGLIFGSYAMGWFRQAPGKAREFVAAISWSGGDTYADSVKGRFTISRDNAKNTVYLQMNSLEPEDTAVYSCAAVGSKYYISKDAKDYGYWGQGTQVTVSS

Columns and labels:
[1] = molecular target: Dengue NS1 protein (serotype not given) (Dengue virus)
[2] = molecular target: T1, Staphylococcal enterotoxin B; assay: MagPlex sandwich fluoroimmunoassay; capture sdAb attached directly by EDC/sNHS

Binder	fold improvement in ability to detect NS1 (against DD7-gs3k) [1] [fold]	binding result [2]
B1	~25	–
B2	–	binds
